{"source": "patent US20250236657A1", "about": "(TOSOH, published 2025)", "binders": {"B1": {"name": "AAV-binding protein AVR10s (polypeptide of SEQ ID NO: 4, with polyhistidine tag) (receptor)", "chain": "MGSAGESDQITLPKNEVQLNAYVLQEPPKGETSTYDWQLITHPRDYSGEMEGEHSQILKLSNLTPGLYEFKAVVEGQNAHSEGYVNVTVEPEPRKNRPPIAIVSPQFQEISLPTTSTVIDGSQSTDDDKIVQYHWEELKGPLREEKISEDTAILKLSKLVPGNYTFRLTVVDSDGATDSTTANLTVNKAVDHHHHHH"}, "B2": {"name": "AVR10s_Y331C (receptor)", "chain": "B1 chain with Y22C"}, "B3": {"name": "AVR10s_A330Y (receptor)", "chain": "B1 chain with A21Y"}, "B4": {"name": "AVR10s_A330W (receptor)", "chain": "B1 chain with A21W"}, "B5": {"name": "AVR10s_A330V (receptor)", "chain": "B1 chain with A21V"}, "B6": {"name": "AVR10s_V332W (receptor)", "chain": "B1 chain with V23W"}, "B7": {"name": "AAV-binding protein AVR10s with cysteine tag (SEQ ID NO: 97), immobilised as AVR10s immobilization gel (receptor)", "chain": "MGSAGESDQITLPKNEVQLNAYVLQEPPKGETSTYDWQLITHPRDYSGEMEGEHSQILKLSNLTPGLYEFKAVVEGQNAHSEGYVNVTVEPEPRKNRPPIAIVSPQFQEISLPTTSTVIDGSQSTDDDKIVQYHWEELKGPLREEKISEDTAILKLSKLVPGNYTFRLTVVDSDGATDSTTANLTVNKAVDHHHHHHCRNDTCG", "modifications": "immobilised on a TOYOPEARL carrier with iodoacetamide groups; cysteine tag sequence serving as immobilization tag at positions 220-226", "notes": "purified on Ni Sepharose and coupled to the carrier; also called AVR10s column"}, "B8": {"name": "AAV-binding protein AVR21 with cysteine tag (SEQ ID NO: 102), immobilised as AVR21 immobilization gel (receptor)", "chain": "MGSAGESDQITLPKHEAQLNVYVLLVPPKGEASTYDWQLITHPRDYSGEMEGEHSQILKLSNLTPGLYEYRAVVEGQNAHSEGYVNVTVEPEPRKNRPPIAIVSPQFQEISLPTTSTVIDGSQSTDDDKIVQYHWEELKGPLREEKISEDTAILKLSQLVPGNYTFRLTVVDTDGATDSTTADLTVNKAVDHHHHHHCRNDTCG", "modifications": "immobilised on a TOYOPEARL carrier with iodoacetamide groups; cysteine tag sequence serving as immobilization tag at positions 220-226", "notes": "KIAA0319L PKD1 and PKD2 with 21 substitutions; also called AVR21 column"}}, "key": {"[1]": {"molecular_target": "AAV vector (AAV5-EGFP), adeno-associated virus serotype 5 (adeno-associated virus serotype 5 (AAV5))", "test": "ELISA, AAV5-EGFP coated, culture supernatant, anti-6His, A450; the reference itself"}, "[2]": {"molecular_target": "AAV vector (AAV5-EGFP), adeno-associated virus serotype 5 (adeno-associated virus serotype 5 (AAV5))", "test": "ELISA, AAV5-EGFP coated, culture supernatant, anti-6His, A450"}, "[3]": {"molecular_target": "T1, AAV2 H271F (adeno-associated virus serotype 2 (AAV2), UniProt P03135 1-735)", "T1 construct": "Recombinant AAV2 vector particles in filtered cell lysate", "test": "affinity HPLC on AVR10s column, pH gradient 4.5 to 2.2; no elution peak, not adsorbed and passed through"}, "[4]": {"molecular_target": "T2, AAV2 G383A (adeno-associated virus serotype 2 (AAV2), UniProt P03135 1-735)", "T2 construct": "Recombinant AAV2 vector particles in filtered cell lysate", "test": "affinity HPLC on AVR10s column, pH gradient 4.5 to 2.2; no elution peak, not adsorbed and passed through"}, "[5]": {"molecular_target": "T3, AAV2 D529A (adeno-associated virus serotype 2 (AAV2), UniProt P03135 1-735)", "T3 construct": "Recombinant AAV2 vector particles in filtered cell lysate", "test": "affinity HPLC on AVR10s column, pH gradient 4.5 to 2.2; no elution peak, not adsorbed and passed through"}, "[6]": {"molecular_target": "T4, AAV2 S267T (adeno-associated virus serotype 2 (AAV2), UniProt P03135 1-735)", "T4 construct": "Recombinant AAV2 vector particles in filtered cell lysate", "test": "affinity HPLC, AVR10s immobilization gel, linear pH gradient 4.5 to 2.2, AAV2 peak top"}, "[7]": {"molecular_target": "T5, AAV2 N382A (adeno-associated virus serotype 2 (AAV2), UniProt P03135 1-735)", "T5 construct": "Recombinant AAV2 vector particles in filtered cell lysate", "test": "affinity HPLC, AVR10s immobilization gel, linear pH gradient 4.5 to 2.2, AAV2 peak top"}, "[8]": {"molecular_target": "T6, AAV2 S264A (adeno-associated virus serotype 2 (AAV2), UniProt P03135 1-735)", "T6 construct": "Recombinant AAV2 vector particles in filtered cell lysate", "test": "affinity HPLC, AVR10s immobilization gel, linear pH gradient 4.5 to 2.2, AAV2 peak top"}, "[9]": {"molecular_target": "T7, AAV2 T503S (adeno-associated virus serotype 2 (AAV2), UniProt P03135 1-735)", "T7 construct": "Recombinant AAV2 vector particles in filtered cell lysate", "test": "affinity HPLC, AVR10s immobilization gel, linear pH gradient 4.5 to 2.2, AAV2 peak top"}, "[10]": {"molecular_target": "T8, AAV2 E499A (adeno-associated virus serotype 2 (AAV2), UniProt P03135 1-735)", "T8 construct": "Recombinant AAV2 vector particles in filtered cell lysate", "test": "affinity HPLC, AVR10s immobilization gel, linear pH gradient 4.5 to 2.2, AAV2 peak top"}, "[11]": {"molecular_target": "T9, AAV2 R471A (adeno-associated virus serotype 2 (AAV2), UniProt P03135 1-735)", "T9 construct": "Recombinant AAV2 vector particles in filtered cell lysate", "test": "affinity HPLC, AVR10s immobilization gel, linear pH gradient 4.5 to 2.2, AAV2 peak top"}, "[12]": {"molecular_target": "T10, AAV2 D528A (adeno-associated virus serotype 2 (AAV2), UniProt P03135 1-735)", "T10 construct": "Recombinant AAV2 vector particles in filtered cell lysate", "test": "affinity HPLC, AVR10s immobilization gel, linear pH gradient 4.5 to 2.2, AAV2 peak top"}, "[13]": {"molecular_target": "T11, AAV2 S384A (adeno-associated virus serotype 2 (AAV2), UniProt P03135 1-735)", "T11 construct": "Recombinant AAV2 vector particles in filtered cell lysate", "test": "affinity HPLC, AVR10s immobilization gel, linear pH gradient 4.5 to 2.2, AAV2 peak top"}, "[14]": {"molecular_target": "T12, AAV2 H271T (adeno-associated virus serotype 2 (AAV2), UniProt P03135 1-735)", "T12 construct": "Recombinant AAV2 vector particles in filtered cell lysate", "test": "affinity HPLC, AVR10s immobilization gel, linear pH gradient 4.5 to 2.2, AAV2 peak top"}, "[15]": {"molecular_target": "T13, AAV2 (wild type), serotype 2 AAV with capsid region VP1 of SEQ ID NO: 99 (adeno-associated virus serotype 2 (AAV2), UniProt P03135 1-735)", "T13 construct": "Recombinant AAV2 vector particles (EGFP genome) in filtered cell lysate; the capsid is assembled from VP1, VP2 and VP3", "test": "affinity HPLC, AVR10s immobilization gel, linear pH gradient 4.5 to 2.2, AAV2 peak top"}, "[16]": {"molecular_target": "T14, AAV2 D529E (adeno-associated virus serotype 2 (AAV2), UniProt P03135 1-735)", "T14 construct": "Recombinant AAV2 vector particles in filtered cell lysate", "test": "affinity HPLC, AVR10s immobilization gel, linear pH gradient 4.5 to 2.2, AAV2 peak top"}, "[17]": {"molecular_target": "T15, AAV2 Q263A (adeno-associated virus serotype 2 (AAV2), UniProt P03135 1-735)", "T15 construct": "Recombinant AAV2 vector particles in filtered cell lysate", "test": "affinity HPLC, AVR10s immobilization gel, linear pH gradient 4.5 to 2.2, AAV2 peak top"}, "[18]": {"molecular_target": "T16, AAV2 S267A (adeno-associated virus serotype 2 (AAV2), UniProt P03135 1-735)", "T16 construct": "Recombinant AAV2 vector particles in filtered cell lysate", "test": "affinity HPLC, AVR10s immobilization gel, linear pH gradient 4.5 to 2.2, AAV2 peak top"}, "[19]": {"molecular_target": "T17, AAV2 H271A (adeno-associated virus serotype 2 (AAV2), UniProt P03135 1-735)", "T17 construct": "Recombinant AAV2 vector particles in filtered cell lysate", "test": "affinity HPLC, AVR10s immobilization gel, linear pH gradient 4.5 to 2.2, AAV2 peak top"}, "[20]": {"molecular_target": "T18, AAV2 Q385A (adeno-associated virus serotype 2 (AAV2), UniProt P03135 1-735)", "T18 construct": "Recombinant AAV2 vector particles in filtered cell lysate", "test": "affinity HPLC, AVR10s immobilization gel, linear pH gradient 4.5 to 2.2, AAV2 peak top"}, "[21]": {"molecular_target": "T19, AAV2 H271Q (adeno-associated virus serotype 2 (AAV2), UniProt P03135 1-735)", "T19 construct": "Recombinant AAV2 vector particles in filtered cell lysate", "test": "affinity HPLC, AVR10s immobilization gel, linear pH gradient 4.5 to 2.2, AAV2 peak top"}, "[22]": {"molecular_target": "T1, AAV2 H271F", "test": "affinity HPLC on AVR21 column, pH gradient 6.0 to 2.0; no elution peak, not adsorbed and passed through"}, "[23]": {"molecular_target": "T2, AAV2 G383A", "test": "affinity HPLC on AVR21 column, pH gradient 6.0 to 2.0; no elution peak, not adsorbed and passed through"}, "[24]": {"molecular_target": "T3, AAV2 D529A", "test": "affinity HPLC on AVR21 column, pH gradient 6.0 to 2.0; no elution peak, not adsorbed and passed through"}}, "note": "Changes are numbered by the printed parent chain.", "data": [{"binder": "B1", "values": [{"measurement": "Binding activity for AAV5 (vs AVR10s) (ratio (AVR10s = 1))", "setting": "[1]", "value": 1}]}, {"binder": "B2", "values": [{"measurement": "Binding activity for AAV5 (vs AVR10s) (ratio (AVR10s = 1))", "setting": "[2]", "value": 1.3}]}, {"binder": "B3", "values": [{"measurement": "Binding activity for AAV5 (vs AVR10s) (ratio (AVR10s = 1))", "setting": "[2]", "value": 2.19}]}, {"binder": "B4", "values": [{"measurement": "Binding activity for AAV5 (vs AVR10s) (ratio (AVR10s = 1))", "setting": "[2]", "value": 1.46}]}, {"binder": "B5", "values": [{"measurement": "Binding activity for AAV5 (vs AVR10s) (ratio (AVR10s = 1))", "setting": "[2]", "value": 1.83}]}, {"binder": "B6", "values": [{"measurement": "Binding activity for AAV5 (vs AVR10s) (ratio (AVR10s = 1))", "setting": "[2]", "value": 3.87}]}, {"binder": "B7", "values": [{"measurement": "binding result", "setting": "[3]", "value": "no binding"}, {"measurement": "binding result", "setting": "[4]", "value": "no binding"}, {"measurement": "binding result", "setting": "[5]", "value": "no binding"}, {"measurement": "AVR10s column elution time", "setting": "[6]", "value": 54.2, "unit": "min"}, {"measurement": "AVR10s column elution time", "setting": "[7]", "value": 46.4, "unit": "min"}, {"measurement": "AVR10s column elution time", "setting": "[8]", "value": 53.7, "unit": "min"}, {"measurement": "AVR10s column elution time", "setting": "[9]", "value": 48, "unit": "min"}, {"measurement": "AVR10s column elution time", "setting": "[10]", "value": 53.1, "unit": "min"}, {"measurement": "AVR10s column elution time", "setting": "[11]", "value": 53.4, "unit": "min"}, {"measurement": "AVR10s column elution time", "setting": "[12]", "value": 47.5, "unit": "min"}, {"measurement": "AVR10s column elution time", "setting": "[13]", "value": 52.1, "unit": "min"}, {"measurement": "AVR10s column elution time", "setting": "[14]", "value": 42.6, "unit": "min"}, {"measurement": "AVR10s column elution time", "setting": "[15]", "value": 54.4, "unit": "min"}, {"measurement": "AVR10s column elution time", "setting": "[16]", "value": 47, "unit": "min"}, {"measurement": "AVR10s column elution time", "setting": "[17]", "value": 54.4, "unit": "min"}, {"measurement": "AVR10s column elution time", "setting": "[18]", "value": 52.9, "unit": "min"}, {"measurement": "AVR10s column elution time", "setting": "[19]", "value": 46.7, "unit": "min"}, {"measurement": "AVR10s column elution time", "setting": "[20]", "value": 50.9, "unit": "min"}, {"measurement": "AVR10s column elution time", "setting": "[21]", "value": 46.4, "unit": "min"}]}, {"binder": "B8", "values": [{"measurement": "binding result", "setting": "[22]", "value": "no binding"}, {"measurement": "binding result", "setting": "[23]", "value": "no binding"}, {"measurement": "binding result", "setting": "[24]", "value": "no binding"}]}]}
